The values that follow come from article PMC10929192, “Hypoxia-activated selectivity-improved anti-PKM2 antibody combined with prodrug TH-302 for potentiated targeting therapy in hepatocellular carcinoma” (International Journal of Biological Sciences, 2024).

Assay [1] deals with T1, human PKM2 Ag (M2 splice isoform of pyruvate kinase), purified (Homo sapiens, UniProt P14618).
T1 construct: M2 splice isoform of pyruvate kinase (PKM2), human; also called purified PKM2 antigen
Description: SPR; human PKM2 Ag (20 µg/mL, sodium acetate buffer, pH 5) on a CM5 chip; serial dilutions of the Abs injected at 20 μL/min, 120 s binding, 300 s dissociation; 1:1 kinetic binding model; Biacore T200. The conditions noted are these: both partners purified.

The target in another assay is T2, PKM2 Ag in HCC tissues (Homo sapiens (HCC patient tissue), UniProt P14618).
T2 construct: M2 splice isoform of pyruvate kinase (PKM2), endogenous in human HCC tissue; source: endogenous, surgical specimens from HCC patients (tissue sections)
T2 sequence (P14618 whole entry, canonical isoform): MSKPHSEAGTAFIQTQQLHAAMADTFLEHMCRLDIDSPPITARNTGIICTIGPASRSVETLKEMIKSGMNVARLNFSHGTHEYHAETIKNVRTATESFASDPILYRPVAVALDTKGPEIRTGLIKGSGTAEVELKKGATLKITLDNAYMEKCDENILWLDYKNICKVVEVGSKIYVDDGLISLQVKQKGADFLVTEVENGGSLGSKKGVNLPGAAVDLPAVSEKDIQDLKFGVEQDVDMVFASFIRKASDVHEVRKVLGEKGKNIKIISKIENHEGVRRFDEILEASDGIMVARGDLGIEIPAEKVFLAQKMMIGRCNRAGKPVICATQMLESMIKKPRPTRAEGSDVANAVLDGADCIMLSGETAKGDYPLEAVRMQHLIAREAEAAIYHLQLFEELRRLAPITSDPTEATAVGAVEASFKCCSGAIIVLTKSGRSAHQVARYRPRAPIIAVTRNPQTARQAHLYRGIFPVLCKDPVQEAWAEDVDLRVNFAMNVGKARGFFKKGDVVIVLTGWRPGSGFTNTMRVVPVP
In words: immunostaining of cells or tissue; IHC on sections of HCC patient specimens; primary Abs 0.1 mg/mL overnight at 4 °C; goat anti-human IgG-HRP. The settings on record: one partner purified.

Assay [2] deals with T3, PKM2 Ag expressed in HCC cells (HepG2, Huh7) (Homo sapiens (HepG2, Huh7), UniProt P14618).
T3 construct: M2 splice isoform of pyruvate kinase (PKM2), endogenous in human HCC cell lines; living cells were incubated with the antibodies at 37 °C; the antibody is said to internalize; also called expressed PKM2 Ag; source: endogenous, HepG2 and Huh7 cells
T3 sequence (P14618 whole entry, canonical isoform): as above
In words: flow cytometry on cells; normoxia-cultured HepG2 and Huh7 cells, EDTA-detached, Abs in serum-free medium 1 h at 37 °C; goat anti-human IgG(H+L)-RDM. The conditions noted are these: one partner purified. For orientation: Flow cytometry measures light scatter and fluorescence of single cells or particles in a stream.

T1 sequence (P14618 whole entry, canonical isoform): as above

B1: human full-length H103 Ab (anti-PKM2 antibody, IgG1) (antibody, V domains shown)
VH: QVQLQESGPGLVRPSGTLSLICAVSGDSISSSIWWSWVRQSPGKGLEWIGYIYHNGNTYYNPSLESRVTISVDTSENQFSLKLSSVTAADTAVYYCARGYDSSGYYWTDDRYYFDYWGQGTLVTVSS
VL: NFMLTQPHSVSESPGKTVTISCTGSSGSIASNYVQWYQQRPGSAPTTVIYEDNQRPPGVPDRFSGSIDSSSNSASLTISALETEDEADYYCQSYDSRNIDVVFGGGTKVTVL
notes: the first five amino acids were replaced by those of germline IGHV4-4*02; constant region of human IgG1 (from the expression vector pcMV3-H103-H); light chain constant region from the vector pcMV3-H103-L; IgG1; codon optimised; also called parental H103 Ab; parent H103 Ab
In the case of B1, the binding result (in assay [1]; in the assay with PKM2 Ag in HCC tissues) was “binds” throughout.

B2: Na2S2O4-cleaved HAP103 Ab (act-HAP103) (antibody, V domains shown)
VH: B1 VH
VL: B1 VL
notes: as the VH of m1; constant region of human IgG1, as in m1; as the VL of m1; as the light chain constant region of m1; IgG1; also called act-HAP103 Ab; act-HAP Ab; source: HAP103 Ab incubated with Na2S2O4 in carbonate buffer pH 8.0 at RT for 2 h, ultrafiltration
Turning to B2, the binding result (in assay [1]; in assay [2]; with PKM2 Ag in HCC tissues) was “binds” throughout.
